Results taken from patent US20230242675A1 (SHANGHAI EPIMAB BIOTHERAPEUTICS, published 2023).
Where a chain is given by its changes, count along the chain named. In names and notes the source's numbering stands.

Legend:
[1] = target: T1, human PD-L1/His fusion protein (human, UniProt Q9NZQ7 19-239); assay: BLI Octet RED96, single concentration of human PD-L1-his
Procedure: Briefly, antibodies were characterized for affinities and binding kinetics by biolayer interferometry (BLI) using an Octet® RED96 sensor device (Pall ForteBio LLC). Antibodies were captured by anti-hIgG Fc Capture (AHC) Biosensors (Pall) at a concentration of 100 nM for 30 seconds. Sensors were then dipped into running buffer (1×, pH7.2, PBS, 0.05% Tween 20, 0.1% BSA) for 60 seconds to check baseline. Binding was measured by dipping sensors into a single concentration of recombinant human PD-L1-his protein. Dissociation was followed by dipping sensors into running buffer for 1200 seconds. The association and dissociation curves were fitted to a 1:1 Langmuir binding model using the manufacturer's data analysis software (ForteBio Data Analysis software, Pall ForteBio LLC).

[2] = target: T1, human PD-L1/His fusion protein; assay: RBA ELISA: coated PD-L1/His, competitor biotinylated PD-1/Fc
Procedure: Anti-PD-L1 scFv supernatants were tested for ability to block PD-L1/PD-1 interaction. […] The mixtures were added to individual wells and incubated at room temperature for 30 minutes. […] Bound signal was developed by Streptavidin-HRP (Cat. No. S2468, Sigma) and read by a plate reader at a wavelength of 450 nm. A low signal, as with the positive control, indicated blocking activity.

[3] = target: T2, human PD-L1 on the cell surface (CHO-K1 cells stably expressing human PD-L1) (human, UniProt Q9NZQ7 19-290); assay: FACS, scFv-phage on CHO-K1/PD-L1 cells
T2 construct: whole, on cells; Also used here for PD-L1 on the monocyte-derived dendritic cells of the MLR assay (functional rows); also called CHO-K1/PD-L1; CHOK1-PD-L1
T2 sequence (Q9NZQ7 19-290): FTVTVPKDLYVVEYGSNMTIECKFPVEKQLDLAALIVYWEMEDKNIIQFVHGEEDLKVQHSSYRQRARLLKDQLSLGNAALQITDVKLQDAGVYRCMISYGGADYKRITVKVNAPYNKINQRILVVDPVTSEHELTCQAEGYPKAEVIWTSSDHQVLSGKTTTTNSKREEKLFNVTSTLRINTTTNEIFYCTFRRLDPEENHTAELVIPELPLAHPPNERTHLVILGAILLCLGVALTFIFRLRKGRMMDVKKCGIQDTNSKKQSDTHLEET
Procedure: After characterization of ability to bind PD-L1 in ELISA and RBA ELISA, the PD-L1-binding positive scFv clones were sequenced. […] Briefly, 2×10⁵ cells of the CHO-K1/PD-L1 cell line stably expressing huPD-L1 described above were added to round-bottom wells of a 96-well plate (Cat. No. 3799, Corning). A phage supernatant from an overnight culture that had been rescued by hyper phage was added. The mixture of CHO-K1/PD-L1 cells and phage supernatant in each well was diluted with 50 μl of FACS buffer (PBS with 2% FBS). The anti-PD-L1 scFv-phages were detected with murine anti-M13 phage antibody (Cat. No. 11973-MM05, Sino biological) and then with Donkey anti-Mouse IgG (H+L) Highly Cross-Adsorbed, Alexa Fluor® 488 conjugate, secondary antibody (Cat. No. A21202, Invitrogen). Cell fluorescence was monitored using a flow cytometer.

[4] = target: T3, cynomolgus (cyno) PD-L1/His fusion protein (cynomolgus, UniProt G7PSE7 19-239); assay: ELISA, scFv supernatant on cynomolgus PD-L1
T3 construct: also called cynomolgus PD-L1; not shown: His tag
T3 sequence (G7PSE7 entry or part of it): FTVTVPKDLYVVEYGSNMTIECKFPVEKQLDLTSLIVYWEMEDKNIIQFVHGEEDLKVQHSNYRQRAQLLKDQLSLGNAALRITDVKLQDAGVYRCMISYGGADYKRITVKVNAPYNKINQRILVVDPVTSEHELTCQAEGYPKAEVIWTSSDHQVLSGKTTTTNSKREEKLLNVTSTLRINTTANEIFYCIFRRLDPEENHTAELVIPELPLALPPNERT

[5] = target: T1, human PD-L1/His fusion protein; assay: BLI Octet RED96, antibody on AHC sensor, single conc. PD-L1/His; test group 3
Procedure: (§1) All 15 antibodies in Table 13 were assayed for and ranked by dissociation rate constant (koff). […] Briefly, antibodies were characterized for affinities and binding kinetics by Octet®RED96 biolayer interferometry (Pall ForteBio LLC). Antibodies were captured by Anti-hIgG Fc Capture (AHC) Biosensors (Pall) at a concentration of 100 nM for 30 seconds. Sensors were then dipped into running buffer (1×pH 7.2 PBS, 0.05% Tween 20, 0.1% BSA) for 60 seconds to check the baseline. Binding was measured by dipping sensors into a single concentration of recombinant human PD-L1/His fusion protein (Novoprotein). Dissociation was followed by dipping sensors into running buffer for 1200 seconds. The association and dissociation curves were fitted to a 1:1 Langmuir binding model using ForteBio Data Analysis software (Pall). […] The off-rate ratio serves as a data normalization. Accordingly, in each test group, the off-rate ratios of the humanized antibodies can be compared with that of the chimeric antibody, and the off-rate ratios of each of the humanized antibodies can be compared to one another within all test groups.

[6] = target: T1, human PD-L1/His fusion protein; assay: BLI off-rate; test group 3
Procedure: as §1

human TGFβ1 = target: T4, human TGFβ1 (human, UniProt P01137 279-390); assay: ELISA: human TGFβ1 coated (1 µg/ml), binding protein titrated 0.0006-10 nM, anti-human IgG Fc-HRP, OD450
T4 construct: also called TGFβ isoform 1; TGFβ1 (Cat. No. CA59, Novoprotein)
T4 sequence (P01137 279-390 limits assumed): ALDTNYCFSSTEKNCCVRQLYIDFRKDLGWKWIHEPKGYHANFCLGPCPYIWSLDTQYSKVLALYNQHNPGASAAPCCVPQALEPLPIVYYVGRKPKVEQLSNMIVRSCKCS
Procedure: (§2) Accordingly, each of the wells of the ELISA microplates provided a reaction mixture to test the ability of a particular binding protein at a particular concentration to bind to a particular TGFβ isoform. […] Plates were washed three times in washing buffer (PBS containing 0.05% Tween 20) and blocked for 1 hour at 37° C. with 200 μl per well of blocking buffer (1% BSA in PBS containing 0.05% Tween 20). […] The wells containing the various binding mixtures were incubated at 37° C. for 1 hour to permit binding to TGFβ protein on the surface of the wells. Thereafter, the wells were washed four times with washing buffer, and anti-human IgG Fc HRP (Sigma, Catalog No. A0170) was diluted 1:10000 and added to the wells at 100 μl per well to detect binding protein that was bound to TGFβ protein present on the surface of a well. The plates were incubated for 1 hour at 37° C. and washed four times with washing buffer. 100 μl of tetramethylbenzidine (TMB) chromogenic solution were added per well. Following color development, the reaction was stopped with 1 N HCl, and absorbance at 450 nm (OD450) was measured on a VARIOSKAN™ LUX microplate reader (Thermo Scientific™).

human TGFβ2 = target: T5, human TGFβ2 (human, UniProt P61812 303-414); assay: ELISA: human TGFβ2 coated (1 µg/ml), binding protein titrated 0.0006-10 nM, anti-human IgG Fc-HRP, OD450
T5 construct: also called TGFβ isoform 2; TGFβ2 (Cat. No. CJ79, Novoprotein)
T5 sequence (looked up): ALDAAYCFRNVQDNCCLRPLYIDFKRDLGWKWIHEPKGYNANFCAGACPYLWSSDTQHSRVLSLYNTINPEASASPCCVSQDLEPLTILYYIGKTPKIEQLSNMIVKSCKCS
Procedure: as §2

[7] = target: T1, human PD-L1/His fusion protein; assay: BLI Octet Red, binding protein on AHC sensor, PD-L1-his in solution
Procedure: Sensors were then dipped into running buffer (1×pH 7.2 PBS, 0.05% Tween 20, 0.1% BSA) for 60 seconds to check baseline. Binding was measured by dipping sensors into a series diluted concentration of recombinant human PD-L1-his protein. Dissociation was followed by dipping sensors into running buffer for 1200 seconds. The association and dissociation curves were fitted to a 1:1 Langmuir binding model using ForteBio Data Analysis software (Pall). The equilibrium dissociation constant KD (M) of the reaction between antibodies and related target proteins was then calculated from the kinetic rate constants using the formula KD=koff/kₒₙ.

[8] = target: T6, biotinylated human PD-L1 protein (ACROBiosystems, H82E5) (human, UniProt Q9NZQ7 19-238, biotinylated (site not stated)); assay: dual-binding ELISA: human TGFβ3 coated, 5 nM binding protein bound to it, biotinylated human PD-L1 titrated 0.0006-10 nM (axis labelled Ab (nM)), streptavidin-HRP, OD450; the EC50 is of the titrated PD-L1
T6 construct: also called biotinylated PD-L1
T6 sequence (Q9NZQ7 19-238 limits assumed): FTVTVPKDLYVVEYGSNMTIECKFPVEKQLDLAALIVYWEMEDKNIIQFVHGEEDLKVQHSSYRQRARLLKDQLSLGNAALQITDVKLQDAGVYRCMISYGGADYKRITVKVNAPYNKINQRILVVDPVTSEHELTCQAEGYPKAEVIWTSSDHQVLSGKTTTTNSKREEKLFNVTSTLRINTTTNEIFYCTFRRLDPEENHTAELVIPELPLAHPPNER
Procedure: (§3) Briefly, ELISA plates were incubated overnight at 4° C. with 100 μl of a human TGFβ isoform diluted in PBS buffer, pH 7.4, at 1 μg/ml, to allow the human TGFβ isoform to coat (adsorb to) the surface of the wells. Plates were washed three times in washing buffer (PBS containing 0.05% Tween 20) and blocked for 1 hour at 37° C. with 200 μl per well blocking buffer (1% BSA in PBS containing 0.05% Tween 20). […] The wells were washed four times with washing buffer, and Streptavidin-HRP (Merck, RABHRP3) was diluted 1:10000 and added to the wells at 100 μl per well. The plates were incubated for 1 hour at 37° C. and washed four times in washing buffer. 100 μl of tetramethylbenzidine (TMB) chromogenic solution were added per well.

[9] = target: T6, biotinylated human PD-L1 protein …; assay: dual-binding ELISA: human TGFβ2 coated, 5 nM binding protein bound to it, biotinylated human PD-L1 titrated 0.0006-10 nM (axis labelled Ab (nM)), streptavidin-HRP, OD450; the EC50 is of the titrated PD-L1
Procedure: as §3

T1 sequence (Q9NZQ7 19-239 limits assumed): as the sequence (G7PSE7 entry or part of it) above, with T33A, S34A, N62S, Q68R, R82Q, L173F, A185T, I192T, L215H counted along it

B1: EM0005-mAb90 scFv (scFv)
scFv: QVQLKQSGAELVRPGSSVKMSCKTSGYTFTSHSINWVKQRPGQGLEWIGYMYIGNGYTEYNEKFKGKATLTSDTSSTTAYMQLSSLTSEDSAIYFCAKITPVVAPYVMDYWGQGTSVTVSSGGGGSGGGGSGGGGSDIVMTQTHKFMSTSVGDRVSITCKASQDVGTAVAWYQQKPGQSPKLLIYWASTRHTGVPDRFTGSGSGTDFTLTISNVQSEDLADYFCQQYSSYPYTFGGGTKLELK
notes: Tested as bacterial culture supernatant and as scFv-displaying phage in FACS; tags of the pCAN phagemid not spelled out for library clones; also called 6C11
[1]
  koff: 0.000232 s⁻¹
[2]
  RBA (% inhibition): 100%
[3]
  Binding to CHOK1-PD-L1 (X Geo Mean): 36.6
[4]
  EC50: 4 nM

B2: EM0005-86c-G55A (antibody, human IgG1, V domains shown)
VH: QVQLQQSGAELVRPGSSVKMSCKTSGYTFTTYGINWVKQRPGQGLEWIGYIYIGNAYTEYNEKFKGKATLTSDPSSRTAYMQLSSLTSEDSAIYFCARDLMVIAPKTMDYWGQGTSVTVSS
VL: DIQMNQSHKFMSTSVGDRVSITCKASQDVGTAVAWYQQKPGQSPKLLIYWASTRHTGVPDRFTGGGSGTDFTLTISNVQSEDLADYFCQQYSSYPYTFGGGTKLEMK
notes: Chimeric antibody with G55A (Kabat) in CDR-H2; also called HuEM0005-86-G55A
[5]
  koff: 0.00111 s⁻¹
[6]
  Off-Rate Ratio to that of EM0005-86c: 108%

B3: HuEM0005-86-5 (antibody, human IgG1, V domains shown)
VH: EVQLVQSGAEVKKPGASVKVSCKASGYTFTTYGINWVRQAPGQGLEWIGYIYIGNGYTEYNEKFKGKATLTSDTSTSTAYMELSSLRSDDTAVYYCARDLMVIAPKTMDYWGQGTTVTVSS
VL: DIQMTQSPSSVSASVGDRVTITCKASQDVGTAVAWYQQKPGKAPKLLIYWASTRHTGVPDRFTGSGSGTDFTLTISSLQPEDFATYYCQQYSSYPYTFGGGTKVEIK
[5]
  koff: 0.00124 s⁻¹
[6]
  Off-Rate Ratio to that of EM0005-86c: 120%

B4: HuEM0005-86-13 (antibody, human IgG1, V domains shown)
VH: B3 VH with A24T, T74P, S77R
VL: B3 VL with A43S, Y87F
[5]
  koff: 0.00119 s⁻¹
[6]
  Off-Rate Ratio to that of EM0005-86c: 116%

B5: HuEM0005-86-14 (antibody, human IgG1, V domains shown)
VH: B3 VH with K67R, A68V, T74P, S77R
VL: B3 VL with A43S, Y87F
[5]
  koff: 0.000838 s⁻¹
[6]
  Off-Rate Ratio to that of EM0005-86c: 81%

B6: bintrafusp alfa (bispecific antibody, human IgG1, lambda)
heavy: not shown
light: QSALTQPASVSGSPGQSITISCTGTSSDVGGYNYVSWYQQHPGKAPKLMIYDVSNRPSGVSNRFSGSKSGNTASLTISGLQAEDEADYYCSSYTSSSTRVFGTGTKVTVLGQPKANPTVTLFPPSSEELQANKATLVCLISDFYPGAVTVAWKADGSPVKAGVETTKPSKQSNNKYAASSYLSLTPEQWKSHRSYSCQVTHEGSTVEKTVAPTECS
notes: also called M7824; Bintrafusp alfa protein
Human TGFβ1
  EC50: 0.696 nM
Human TGFβ2
  EC50: 3.6 nM

B7: FIT1012-3a TGFβ/PD-L1 bispecific binding protein (bispecific antibody, human IgG1, kappa)
heavy: not shown
chain: TIPPHVQKSVNNDMIVTDNNGAVKFPQLCKFCDVRFSTCDNQKSCMSNCSITSICEKPQEVCVAVWRKNDENITLETVCHDPKLPYHDFILEDAASPKCIMKEKKKPGETFFMCSCSSDECNDNIIFSEEYNTSNPDASTKGPSVFPLAPSSKSTSGGTAALGCLVKDYFPEPVTVSWNSGALTSGVHTFPAVLQSSGLYSLSSVVTVPSSSLGTQTYICNVNHKPSNTKVDKKVEPKSC
light: DIQMTQSPSSVSASVGDRVTITCKASQDVGTAVAWYQQKPGKAPKLLIYWASTRHTGVPDRFTGSGSGTDFTLTISSLQPEDFATYYCQQYSSYPYTFGGGTKVEIKRTVAAPSVFIFPPSDEQLKSGTASVVCLLNNFYPREAKVQWKVDNALQSGNSQESVTEQDSKDSTYSLSSTLTLSKADYEKHKVYACEVTHQGLSSPVTKSFNRGEC
notes: Six-chain protein; anti-PD-L1 moiety from HuEM0005-86-6 with G55A; four TGFβR2(ECD) traps
Human TGFβ1
  EC50 (read off the curve): ~0.4 nM
[7]
  Kd: 0.609 nM
  koff: 0.000344 s⁻¹
  kon: 564000 M⁻¹ s⁻¹
[8]
  EC50: 0.205 nM
Human TGFβ2
  EC50: 0.525 nM
[9]
  EC50: 0.205 nM

B8: FIT1012-4a TGFβ/PD-L1 bispecific binding protein (bispecific antibody, human IgG1, kappa)
heavy: not shown
chain: B7 chain
light: not shown
notes: Six-chain protein; anti-PD-L1 moiety from HuEM0005-87-1; four TGFβR2(ECD) traps
Human TGFβ1
  EC50: 0.29 nM
[7]
  Kd: 1.3 nM
[8]
  EC50: 0.114 nM
Human TGFβ2
  EC50: 0.288 nM
[9]
  EC50: 0.114 nM
